Measured values reported in the DeepSol protein solubility set.

Assay: soluble on expression in E. coli; label from the status in PepcDB or PDB records
With “MAELIHSTIGRLLEQTADAYPDRDAVVYPDRNIRYTYAQFDSLCRQTAKGLMRMGIGKGDHVAIWASNISEWLAVQFATAKIGAVLVTVNTNYQAHELDYLLKQSDAAALIIMDSYRGTSYPDIVNSLIPELQEAKPGQLKSERYPFLKTLIYIGNKRLSGMYHWDDTEILAKTVTDAELEERMNSLDKDNVINMQYTSGTTGFPKGVMLTHFNVINNAANIAECMALTSQDRMCIPVPFFHCFGCVLGVLACVSVGAAMIPVQEFDPVTVLKTVEKEKCTVLHGVPTMFIAELHHPDFDAYDLSTLRTGIMAGSPCPSEVMKAVIERMGMKDITIAYGQTEASPVITQTRANDSFIRRVETTGRALPHTEVKIVEPGTCQEVQRGMQGELCTRGYHVMKGYYKDKDATRKAINHDGWLFTGDLAVMDEDGYCRITGRLKDMLIRGGENIYPREIEEFLYQHPAVLDVQVVGVPDAKFGEEAAAWIKLKDGKSVSPDELKAYCKGKIARHKIPRYVIFTDDYPMTASGKIQKY” the “soluble on expression in E. coli” value was “not soluble”.
In the case of “MGSDKIHHHHHHVSGAILSGPEQKPDQDDIETALFRHLAQQGWCLSAPTPLAGGRSNHVWRAGDKVVKLYRSDAHNPLFANDPDRERAMLRALSGTGMAPRFLAHGLWQGQAWLMYTHVCGARWESDPSHVARILSIVHDQAKPRGLPFGCNGSEALAQQTRQIVSAASQGTTLLDRAPQGVVPPTSQLCLIHGDPVPGNIVAHNGTLALIDWQCPQLGDPAEDLALFLSPAMQLAYRGRVLSRQEEAEFVTAYPHPRVVARYYALKPWFHWRMAAYCAWRGETDARDLELAEI”, the “soluble on expression in E. coli” value is reported as “not soluble”.
In the case of “PDLLIELFSEEIPARMQARAREDLKKLVTDGLVEAGLTYASAGAFSTPRRLVLSVEGLSAESPTLREERKGPKADAPAAAIEGFLRSTGLTRDQLETREDKKGAVLFAVVEKPGRRAPDIVAEVLERTIRTFPWPKSMRWGTGSLRWVRPLHSILCLLSDEAGSQVVPVTVDQVTAVNTTEGHRFMAPGRFAVTGFDDYRAKLQRALVMLDAAEREQAIWHEATTQAFAQGLEVVPDAGLLAEVAGLVEWPVVLMGPIGEEFLGLPPEVLQTSMREHQKFFSVRNPATGRIEKFVTVANRETADHGATILKGNAKVLSARLSDASFFWENDRRTVQTVGLEGMAAGLAHVTFHNKLGSQADRIARIEALAREIAPLVGASPDLAAEAARVAKADLQSAMVGEFPELQGTMGSYYARAAGLPEPVALACKAHYQPLGPSDAVPTDPVSVAVALADKIDTLTGFWAIDEKPTGSKDPFALRRAALGVVRLLLMNGLRLSLLNQVRFAHGCLAEQFNSRFNFFVQIREEPKEAVNIGVGHRYPEVVSDQCTSILMGYVENPVESVASGKFTIDGRAVGTKP”, the “soluble on expression in E. coli” value is reported as “not soluble”.
With “MPATAYERVVYKSPSEYHYMKVCLEFQEHGVGLNVAQFKQLLVSALRDLFGEVGAALPVDVLTYDEKTLSAILRICSSGLVKLWSSLTLFGAYKSKKCAFRVIQVSPFLLALSGNSREQVLD” the “soluble on expression in E. coli” value was “not soluble”.
In the case of “IAAGGSHVEAAPQEEWKKHFIHTGELGSAEFASVMSHTTSAMKSVFEQVNAPYSGMDPKALEDAINAVDLDNKNAPLKSVIDDVAELVAKNAIFTQHPDCIAHLHTPPLMPAVAAEAMIAALNQSMDSWDQASSATYVEQKVVNWLCDKYDLSEKADGIFTSGGTQSNQMGLMLARDWIADKLSGHSIQKLGLPDYADKLRIVCSKKSHFTVQKSASWMGLGEKAVMTVDANADGTMDITKLDEVIAQAKAEGLIPFAIVGTAGTTDHGAIDDLDFIADMAVKHDMWMHVDGAYGGALILSSHKSRLKGVERAHSISVDFHKLFYQTISCGALLVNDKSNFKFLLHHADYLNREHDELPNLVDKSIATTKRFDALKVFMTMQNVGPKALGDMYDHLLAQTLEVADMIRTNDQFELLAEPSLSTVLFRATHETADLDELNKALRLEALTRGIAVLGETIVDGKTALKFTILNPCLTTSDFESLLSKINMLAVELV”, the “soluble on expression in E. coli” value is reported as “soluble”.
In the case of “GPGSMIRTTAAAARLPQSTQGWVPLMRRALEFPIDSVTFPSHFYLHTVTNGTASTVGFSPQKEPVGLTALRQCAVLVLLSPAATGNGFQDMCITLTKRTATMGSHKSEMSFPGGHVDDDETLRNAAQRETLEEVGLPPSEYEIIGSLTPITTNALSARVTPFVAVATSPAQPYRASPVEVDSIHYLHMSMLLLSASTGHARVIKYRSFTSDRPCFFPCFFASPAQTVVSSAVCRSPKATGVADDCGFDPMLPEDF”, the “soluble on expression in E. coli” value is reported as “not soluble”.
For “MIEENLKQKIHDKFVAAKKNGHLKVTHAESKKLKDPQTTTQYWVTFAPSLALKPDANKNSDSKAEDPFANPDEELVVTEDLNGDGEYKLLLNKFPVVPEHSLLVTSEFKDQRSALTPSDLMTAYNVLCSLQGDKDDDVTCERYLVFYNCGPHSGSSQDHKHLQIMQMPEKFIPFQDVLCNGKDHFLPTFNAEPLQDDKVSFAHFVLPLPESSDQVDEDLLAMCYVSLMQRALTFFQDWTNESPELTKSYNVLLTKKWICVVPRSHAKSGPPLMLNINSTGYCGMILVKDREKLENLTEDPHLVDKSLLQCGFPNTAGQKPTEYHY”, the “soluble on expression in E. coli” value was “not soluble”.
With “MSLAEQATKSVLFVCLGNICRSPIAEAVFRKLVTDQNISENWVIDSGAVSDWNVGRSPDPRAVSCLRNHGIHTAHKARQITKEDFATFDYILCMDESNLRDLNRKSNQVKTCKAKIELLGSYDPQKQLIIEDPYYGNDSDFETVYQQCVRCCRAFLEKAHEGHHHHHH” the “soluble on expression in E. coli” value was “soluble”.
In the case of “MSRLVLLISLVIVVASAAAPQCEVCKKVLDDVMAKVPAGDKSKPDAIGKVIREHCETTRNKENKFCFYIGALPESATSIMNEVTKPLSWSMPTEKVCLEKLKGKDAQICELKYDKPLDWKTIDLKKMRVKELKNILGEWGEVCKGCTEKAELIKRIEELKPKYVKEEL”, the “soluble on expression in E. coli” value is reported as “not soluble”.
With “MAHHHHHHMVLLWVDAEQYGVASSLGLSDDAKYPAFVIARGEDHFVHPSTEPVTAESIEKFIIEYSEKKLSPEIKSQPVPEIETVEGLTTVVGKTLDKYLSSGKDMLIEFFAPWCGHCKNLAPIYAKVAKEFESSDVIIAAMDATANQVDNSLFDVSGFPTIYFVPHGGKPIVYDGGRTFYEIYKFVHEHSSTLKDVPIPEEVKREEEKNGDYDDL” the “soluble on expression in E. coli” value was “soluble”.
For “GASIRWEWRAARFADYLLQTRLKSRNNGLRVVYSITINLVPNHLDKRAHKYLGMVRQASRKYGVDESLILAIMQTESSFNPYAVSHADAMGLMQVVQHSAGRDVFRSQGKSGLPSRSYLFDPANNIDTGTAYLAMLNNVYLAGIDNPTSRRYAVITAYNGGAGSVLRVFSSDKVQAANIINSMAPGDVYQTLTTRHPSAESRRYLYKVNTAQKSYRRK”, the “soluble on expression in E. coli” value was “not soluble”.
In the case of “MRSFIIFSTLLVILVQCGYPVAENSYPTTPSYPTPPPSYPTPKKYPVAPTYPSTPSYSAPPAQSAYSSSDNQEDTESESVTGAASTSEYRKRAKARTAHNRQFQRRALQPIKRFQQKKQ”, the “soluble on expression in E. coli” value is reported as “not soluble”.
With “MNEFETLLNSVEDVKVRDVVKGEILSVENGQATVAIVGTGVEGVLTLREITNDKDADINTFVKPGDVLDLLVIKQIVGKEAEGANVYLLSLKRLEARKAWTQLEGKEGEIVTVKVTKDVKGGLSVDYNGVRGFIPASMIDTYFVKDTKKFVGEEIEAKIIEVNASENRFILSRRAVVEAEAIEMRKEAFAQLQEGDIVEGTVSRVTNFGAFVDLGGIDGLVHVSELSHSRIKRPSDAVKPGDVVNVKILKLDPEAGRLSLSLKATQPGPWEQVEEKAPVGSTVEGTVKRLTDFGAFVELYPGVEGLVHVSQISWERVENPKDVLKVGQVVNVKVLDVKPAEERISLSIKALEEAPARPARNNDNDGEKRDRKPRAPRKAAKPSYDLPETQEGFSLADFLGEDFDINDLLEHHHHHH” the “soluble on expression in E. coli” value was “soluble”.
With “MITVFHSDKLTRQPFFQDLINYLDQHDHVILREIKKAFPNVTGIDKAIESYVQAGYIRRENKRYGINLPLVSSDQQLALDTMLFVDTCSAMYENILAVVFETQLTNQTNRVMIKEKTNITRDDLTLANYFYRLKRGEKPSAEQMDLYDLLGDVNQEYALKYMTTFLLKFTRKDFVMQKRPDIFVEALVTLGYLKQVEPTTYQLLMTLDKESLTFIAP” the “soluble on expression in E. coli” value was “not soluble”.
With “MKKISIEERPDWRATAEREGFNFHTIDGERYWDERGYYLFTEQQITRDLEAPTQALHQMCMDAVARVVDSEELLHQLAIPPAFFDVIQTSWKQGHPHLYARFDFAYDGTGPAKMYEINADTPTSLMEAGAFQLLWLEEQMARGVLPAHASQFNSIAEDLVRAFAEFPGASPFYFAAMSGSVEDRVTTDFLRRMAAHVGIDARHIDIEDIGLNDQGRFVDLDGRWIERLFKLHAWEHIFHEAFGKNVTASGTQFVEPAWKAILSNKGILPLLWQFNEGHPNLLPSRVDQDVTKPVPKGWVRKPYFSREGANIEMRTPGDQVIAVDGPYTDAPYILQAYSPLPKFGDSYTLIGSWVIGDLASGIGIREDDSLITKDTSRFLPHVVID” the “soluble on expression in E. coli” value was “not soluble”.
For “MKQEIIIAGFGGQGVLSMGKILAYSGLMEDKEVTWMPAYGPEQRGGTANVTVIVSDERISSPILSQYDTAIILNQPSLEKFEGKIKPGGILIYDGYGIIEPPTRKDIQIYRIDAMDAANEKGMAKTFNMIVLGGLLKLRPVVSIESVIKALRKTLPERHHHLIPMNEEAIRIGMEIIK”, the “soluble on expression in E. coli” value was “not soluble”.
In the case of “MTQRPWSKLQREIYDLLTPTINLQIHCTRYPMRSQNGGSTDLPRYWITLDKNVIWDYPKDFIAGNAGVRNFHGETCWYPYLTDICSISDLLREYIDTPKAELLTKQFTSDKWGLVNILRAADRRIGMRRLDQLRRKTHNIAALKIIARRSE”, the “soluble on expression in E. coli” value is reported as “not soluble”.
In the case of “MNEFTAVKELSEKLLEDYKTESSFFFASPTRTILAEGEFTTVKHHEIESFPELVQAVLRNAKQAGNPNPIVVGALPFDRRKEVQLIVPEYSRISERLQLDPTNHLEINRNLTFEMTPVPDHEVYMKGVKQGIEKIKDGDLKKIVLSRSLDVKSSGKIDKQKLLRELAEHNKHGYTFAVNLPKDENENSKTLIGASPELLVSRHGMQVISNPLAGSRPRSDDPVEDKRRAEELLSSPKDLHEHAVVVEAVAAALRPYCHTLYVPEKPSVIHSEAMWHLSTEVKGELKNPNTSSLELAIALHPTPAVCGTPMEEAREAIQKIEPFDREFFTGMLGWSDLNGDGEWIVTIRCAEVQENTLRLYAGAGVVAESKPEDELAETSAKFQTMLKALGLNDSSLNEK”, the “soluble on expression in E. coli” value is reported as “not soluble”.
With “MYLTIKSIMLLRKYLLVTESQVSKCGFHIVKKKGDVLYPKRTKYSKYRKGRCSRGCKPDGTKLGFGRYGTKSCKAGRLSYRAIEAARRAIIGHFHRAMSGQFRRNGKIWVRVFADLPITGKPTEVRMGRGKGNPTGWIARVSTGQIPFEMDGVSLANARQAATLAAHKPCSSTKFVQWSLEHHHHHH” the “soluble on expression in E. coli” value was “not soluble”.
In the case of “MGSDKIHHHHHHMKYYICVCVFLLLNACNSDFSTNQEDIKYPSDKEKSKSNMEASSKEEDPNKKIKNTLLNDLINLIEIANEHKEKYEKRMQEEPSDQYGILAFQELDLSVGKISEDTPQSKKFRKNTYSPLSAIDVNKLKDLSEIIRNSGQIQGLFNIFNRFGGIFDDSLNHVYSKKDILGGLEILDLDKLKNSFEKLLSIKETFSKMLNQLLLDYKNDKDHIRTETNKLKSHTTALFEQLDKKEDEAYEPKNQIFSISNL”, the “soluble on expression in E. coli” value is reported as “not soluble”.
In the case of “MDVTCNIKNGRCEQFCKNSADNKVVCSCTEGYRLAENQKSCEPAVPFPCGRVSVSQTSK”, the “soluble on expression in E. coli” value is reported as “soluble”.
In the case of “MGSDKIHHHHHHMDHEQIESQPWPQEGLERVERCPICGEVDRALLHDGLTDKIFFCAPGRWSLYQCPTCGAAYLDPRPTPATIAMAYSDYYTHEEGDDAPKGRFAHLKRRLRNDYLNARYNADLQPAWKVGRWITPLLGRKRKQIDESVRHLPATGKPGVLVDIGCGNGQFLGVAMQLGWEAWGVDLDPKAVKTAQKTGATVIQGGFPDTGLPSAHFDIVTLSHVIEHVHDPLAALREAFRVLKPGGHLWLATPNMGSFGHVRFGADWRGLEPPRHLVLFNNNSLEIALDGAGFIDIKQKPCLAQAAWFYQSSLRISRCQDPYDASASGLPLTLWIAAKLVDFRVAVSPFRCESIVVTAKRPESD”, the “soluble on expression in E. coli” value is reported as “not soluble”.
